In the assay the target is scFv of the anti-GLA antibody, forcibly expressed on M1 cells (Transfectant). The experiment in a line: cell-based or functional assay.

The record followed here is patent US20220403002A1.

Chain of scFv of the anti-GLA antibody, forcibly expressed on M1 cells (Transfectant) (scFv, as listed by the source): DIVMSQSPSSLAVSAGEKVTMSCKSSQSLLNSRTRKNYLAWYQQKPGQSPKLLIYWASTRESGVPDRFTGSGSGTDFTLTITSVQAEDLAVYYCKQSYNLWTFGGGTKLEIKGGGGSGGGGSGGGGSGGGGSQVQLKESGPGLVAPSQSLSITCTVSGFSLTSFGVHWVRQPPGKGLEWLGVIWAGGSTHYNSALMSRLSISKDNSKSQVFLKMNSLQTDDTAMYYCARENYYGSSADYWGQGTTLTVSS

Take “CD19 CAR expressed on human T cells (CD19 CAR-T cells)”: the cell viability rate of M1 cells (in vitro killing assay, control co-culture) stood at 66.9%.
